Assay [1] has as its target MART1 peptide on HLA-A*02:01 (human). Nature of the assay: IL-2 ELISPOT; Jurkat 76/CD8; T2 + graded peptide; full-length, on cells.
The target is the same in assay [2]. As to the kind of experiment: IL-2 ELISPOT; Jurkat 76 without CD8; T2 + graded peptide; full-length, on cells.
The target is the same in assay [3]. Nature of the assay: structural avidity; Jurkat 76/CD8; graded A2/MART1 multimer; full-length, on cells.
For assay [4] the target is unchanged. As to the kind of experiment: structural avidity; Jurkat 76 without CD8; graded A2/MART1 multimer; full-length, on cells.

For DMF5, the EC50 of peptide in assay [1] amounted to 0.102 µg/mL; in assay [2], 0.363 µg/mL. Moreover, the figures for the EC50 of multimer in assay [3] and in assay [4] were 0.013 µg/mL and 0.022 µg/mL, respectively.

The values are drawn from paper PMC4814874.
